From patent US20230002478A1

Experiments:
Assay in all cases: SPR
Details in all cases: remark: other sources report otherwise
[1] = molecular target: SARS-CoV-2 S RBD (N501Y) (SARS-CoV-2), P0DTC2
[2] = molecular target: SARS-CoV-2 S RBD (Y453F) (SARS-CoV-2), P0DTC2
[3] = molecular target: SARS-CoV-2 S1 (D614G) (SARS-CoV-2), P0DTC2
[4] = molecular target: SARS-CoV-2 S1 (HV69-70del, Y144del, N501Y, A570D, D614G, P681H) (SARS-CoV-2), P0DTC2
[5] = molecular target: SARS-CoV-2 S RBD (K417N) (SARS-CoV-2), P0DTC2

B1: 6-63 (Fc fusion)
chain: EVQLVESGGGLVQPGGSLRLSCAASGQTFNMGWFRQAPGKEREFVAAIGSGGSTSYADSVKGRFTISADNSKNTAYLQMNSLKPEDTAVYYCWRLGNDYFDYWGQGTLVTVSS
With B1 the Kd [1] was 3.8 nM, the Kd [2] was 5.4 nM and the Kd [3] was 95 nM. It also gave a Kd [4] of 80 nM and a Kd [5] of 14 nM.
